This is an account of results in the supplement of paper PMC11780869.

This series has as its system Bacillus subtilis. Briefly: cleaved RNA product abundance (RNA/gDNA barcode ratio) relative to median wild-type variant (ratio to wild type); higher = more accumulation of the downstream cleavage product. To be noted: cleavage site: cggR-gapA (positions -7 to +36 mutated). Put shortly: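 Cleaved product abundance was measured with barcoded reporter mRNAs (truncated aprE or tetM) carrying mutagenized RNase Y cleavage-site windows in the B. subtilis chromosome. Cultures in LB at 37°C grew from OD600 0.0003 to 0.3. Gel-selected cleaved RNA was reverse transcribed and barcode-sequenced with genomic DNA barcodes, and the RNA:gDNA barcode ratio per construct was scaled to the median construct bearing the unmutated site.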

Setting [1] is: experiment (reporter, strain, medium): exp 4a: truncated aprE reporter, strain BJT201 with 2% xylose (RNase J1 expressed).
Where [2] appears, read: experiment (reporter, strain, medium): exp 2b: truncated aprE reporter, strain BJT200.

Turning to “ACAGACGAAGGAGCCGCAAAGAAGTTATTAAGCCATGAATAATCCCTCAATATAAATATCTCTCACTTATTTAAA”, the “cleaved RNA product abundance” value by setting is: under setting [1], 0.106; (experiment (reporter, strain, medium): exp 6: tetM reporter, strain 168) 0.058.

Consider “ACAGACGAAGGAGCCGCAAAGAAGTTATTAAGCGATAAATAATCCCTCAATATAAATATCTCTCACTTATTTAAA”, for which the “cleaved RNA product abundance” value worked out at 0.0673 under setting [2] and 0.0716 under setting [1].

With “ACAGACGAAGGAGCCGCAAAGAAGTTATTAAGCGATCAATAATCCCTCAATATAAATATCTCTCACTTATTTAAA”, the “cleaved RNA product abundance” value came out at 0.0893 under setting [2] and 0.0886 under setting [1].

As to “ACAGACGAAGGAGCCGCAAAGAAGTTATTAAGCGATGAACAATCCCTCAATATAAATATCTCTCACTTATTTAAA”, the “cleaved RNA product abundance” value under setting [1] was determined as 0.133.

For “ACAGACGAAGGAGCCGCAAAGAAGTTATTAAGCGATGAAGAATCCCTCAATATAAATATCTCTCACTTATTTAAA”, the “cleaved RNA product abundance” value under setting [1] stood at 0.0967.

For the sequence “ACAGACGAAGGAGCCGCAAAGAAGTTATTAAGCGATGAATAAACCCTCAATATAAATATCTCTCACTTATTTAAA”, the “cleaved RNA product abundance” value under setting [1] was 0.0954.

With “ACAGACGAAGGAGCCGCAAAGAAGTTATTAAGCGATGAATAAGCCCTCAATATAAATATCTCTCACTTATTTAAA”, the “cleaved RNA product abundance” value under setting [1] is 0.108.

On to “ACAGACGAAGGAGCCGCAAAGAAGTTATTAAGCGATGAATAATACCTCAATATAAATATCTCTCACTTATTTAAA”, for which the “cleaved RNA product abundance” value turned out to be 0.0864 under setting [2] and 0.127 under setting [1].

On to “ACAGACGAAGGAGCCGCAAAGAAGTTATTAAGCGATGAATAATCACTCAATATAAATATCTCTCACTTATTTAAA”, for which the “cleaved RNA product abundance” value under setting [1] was determined as 0.101.

As to “ACAGACGAAGGAGCCGCAAAGAAGTTATTAAGCGATGAATAATCCATCAATATAAATATCTCTCACTTATTTAAA”, the “cleaved RNA product abundance” value runs as follows: under setting [2], 0.121; under setting [1], 0.154.

In the case of “ACAGACGAAGGAGCCGCAAAGAAGTTATTAAGCGATGAATAATCCCACAATATAAATATCTCTCACTTATTTAAA”, the “cleaved RNA product abundance” value under setting [1] is 0.0785.

Regarding “ACAGACGAAGGAGCCGCAAAGAAGTTATTAAGCGATGAATAATCCCCCAATATAAATATCTCTCACTTATTTAAA”, the “cleaved RNA product abundance” value turned out to be 0.0922 under setting [2] and 0.13 under setting [1].

Regarding “ACAGACGAAGGAGCCGCAAAGAAGTTATTAAGCGATGAATAATCCCGCAATATAAATATCTCTCACTTATTTAAA”, the “cleaved RNA product abundance” value is, setting by setting: under setting [2], 0.0603; under setting [1], 0.0767.

For “ACAGACGAAGGAGCCGCAAAGAAGTTATTAAGCGATGAATAATCCCTAAATATAAATATCTCTCACTTATTTAAA”, the “cleaved RNA product abundance” value by setting is: under setting [2], 0.132; under setting [1], 0.207.

Turning to “ACAGACGAAGGAGCCGCAAAGAAGTTATTAAGCGATGAATAATCCCTCAAAATAAATATCTCTCACTTATTTAAA”, the “cleaved RNA product abundance” value is, setting by setting: under setting [2], 0.0793; under setting [1], 0.108.

Regarding “ACAGACGAAGGAGCCGCAAAGAAGTTATTAAGCGATGAATAATCCCTCAAGATAAATATCTCTCACTTATTTAAA”, the “cleaved RNA product abundance” value amounted to 0.0861 under setting [2] and 0.0789 under setting [1].

For the sequence “ACAGACGAAGGAGCCGCAAAGAAGTTATTAAGCGATGAATAATCCCTCAATAAAAATATCTCTCACTTATTTAAA”, the “cleaved RNA product abundance” value under setting [1] is 0.0528.

Consider “ACAGACGAAGGAGCCGCAAAGAAGTTATTAAGCGATGAATAATCCCTCAATAGAAATATCTCTCACTTATTTAAA”, for which the “cleaved RNA product abundance” value is 0.0778 under setting [2] and 0.0613 under setting [1].

For the sequence “ACAGACGAAGGAGCCGCAAAGAAGTTATTAAGCGATGAATAATCCCTCAATATAAAAATCTCTCACTTATTTAAA”, the “cleaved RNA product abundance” value reads like this: under setting [2], 0.111; under setting [1], 0.111.

In the case of “ACAGACGAAGGAGCCGCAAAGAAGTTATTAAGCGATGAATAATCCCTCAATATAAACATCTCTCACTTATTTAAA”, the “cleaved RNA product abundance” value is, setting by setting: under setting [2], 0.0873; under setting [1], 0.0627.

Take “ACAGACGAAGGAGCCGCAAAGAAGTTATTAAGCGATGAATAATCCCTCAATATAAATAACTCTCACTTATTTAAA”: the “cleaved RNA product abundance” value runs as follows: under setting [2], 0.114; under setting [1], 0.102.
